{"source": "patent US20250236667A1", "about": "“ANTIBODIES TO MUTANT CALRETICULIN AND USES THEREOF” (CENTRAL ADELAIDE LOCAL HEALTH NETWORK INC, priority 2021, published 2025)", "molecules": {"B1": {"name": "4D7: rat monoclonal IgG2a antibody against the mutant CALR neoepitope; VH SEQ ID NO: 5, VL SEQ ID NO: 7 (antibody, listed as Rattus rattus, V domains shown)", "VH": "QVQLQQSGAELAKPGSSVKISCKASGYTFTNYDMSWIKQRPGQALEWIGAINPGNGVTDYNEKFRGKATLTVDKSSSTAFMQLSSLTPEDTAVYHCAREYRDNYGYFDYWGQGVMVTVSS", "VL": "DIVLTQTPVSLSVTLGDQASISCRSSQSLEYSDGYTYLDWFLQKPGQSPQLLIYEVSSRFSGVPDRFIGRGSGTDFTLKISRVEPEDLGVYYCFQATHDPFTFGSGTKLEIK"}}, "key": {"[1]": {"tested_on": "primary CD34+ cells from JAK2 V617F myelofibrosis samples", "test": "TPO-independent megakaryocyte differentiation in liquid culture", "format": "cell-based, human", "settings": "3 out of 3 JAK2 V617F myelofibrosis samples", "description": "(§1) Patient samples were collected with informed consent from the South Australian Cancer Research Biobank (SACRB: Adelaide, Australia). Primary CD34+ stem/progenitor cells from peripheral blood samples from patients with JAK2^V617F or CALR mutant myelofibrosis were purified by flow cytometry using CD34-APC antibody, anti-human CD45RA Brilliant Violet 605, anti-CD90 FITC, anti-human CD123-PE, anti-human CD38 PE-Cy7, or with CD34-APC antibody, anti-human CD3 FITC, anti-human CD19-PE (clone H1B19) and anti-human CD14 PE-Cy7.\n(§2) For megakaryocyte differentiation assays, CD34+ cells derived from cord blood or from patient peripheral blood mononuclear fractions were plated in Megacult (MegaCult™-C Collagen and Medium with Lipids) with added IL-3 and IL-6 (10 ng/ml) in the presence or absence of 50 ng/mL TPO. Cells were plated at an initial density of 1800 cells/well and cultured for 12 days at 37° C. and 5% CO2. Primary PMF CD34+ cells were cultured in StemCell Pro supplemented with human recombinant SCF (25 ng/mL), IL-6 and IL-9 (10 ng/ml) to allow differentiation into megakaryocytes. CD34+cord blood cells were cultured in 50 ng/mL SCF, 50 ng/ml TPO, 20 ng/ml IL-6 and 20 ng/ml IL-9. Both IgG and 4D7 were added at 20 μg/mL. All cytokines are from Preprotech. Culture media was replenished every 3 days and cells were assessed for megakaryocyte differentiation on day 12 using anti-human CD41/61 PE-Cy7 (Clone A2A9/6) and CountBright beads (Thermo Fisher) to enumerate cell numbers. CD34+obtained from UCB were plated in MethoCult containing cytokines (H4434). Cells were seeded at approximately 100 cells per well and were cultured in the presence of 20 μg/mL 4D7 or control IgG antibody and scored for colony and blast forming units at 12-14 days."}, "[2]": {"tested_on": "primary CD34+ cells from patients with CALR mutant myelofibrosis", "test": "TPO-independent megakaryocyte differentiation in liquid culture", "format": "cell-based, human", "description": "as §1, §2"}, "[3]": {"target": "T1, mutant CALR protein (Homo sapiens, UniProt P27797)", "T1 construct": "expressed in transfected cells; host or cells: TF-1 TpoR cells, pCX4-IRES eGFP vector", "T1 sequence (P27797 with tags, fused parts or gaps limits assumed)": "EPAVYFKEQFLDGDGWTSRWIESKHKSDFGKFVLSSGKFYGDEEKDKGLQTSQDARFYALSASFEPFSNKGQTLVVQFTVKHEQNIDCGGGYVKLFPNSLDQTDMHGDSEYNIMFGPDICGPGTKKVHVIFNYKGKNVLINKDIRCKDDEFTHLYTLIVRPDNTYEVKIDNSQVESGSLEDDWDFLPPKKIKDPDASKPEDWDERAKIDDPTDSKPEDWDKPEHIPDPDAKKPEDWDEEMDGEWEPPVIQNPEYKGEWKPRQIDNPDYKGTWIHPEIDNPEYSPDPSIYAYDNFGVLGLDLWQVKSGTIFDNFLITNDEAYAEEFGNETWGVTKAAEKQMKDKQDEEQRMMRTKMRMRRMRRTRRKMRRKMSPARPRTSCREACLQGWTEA", "test": "Western blot detection of mutant CALR by hybridoma clones", "format": "binding", "procedure": "Rats were immunised with a CALR mutant peptide “MMRTKMRMRRMRRT RRKMRRKMSPARPRTS” coupled to KLH, this peptide sequence is unique to CALR mutant. Serum from the immunised rats was screened by enzyme linked immunoassay, to verify a strong titre to the peptide immunogen, prior to performing the hybridoma fusion. Immunised rat spleen cells were harvested and a spleen single cell suspension was combined with Sp2/O myeloma cell line. The cell mixture was treated with polyethylene glycol plus DMEM prior to been plated in 96 well flat bottom plates. The expanding hybridomas were screened initially by ELISA and the positive clones were further verified by western blot, for reactivity to the expressed CALR mutant protein before subcloning the hybridomas for antibody production.\nFor immunoblotting of total lysates, cells were lysed in NP40 buffer containing 150 mM NaCl, 50 mM Tris pH 7.6, 1% NP-40, supplemented with protease inhibitors (Complete, Roche) and phosphatase inhibitor cocktails, and boiled for 5 minutes after addition of sample buffer (60 mM Tris pH 6.8, 5% glycerol, 1% SDS, 2% β-mercaptoethanol, 0.02% bromophenol blue) before SDS gel electrophoresis followed by Western blotting (Tvorogov et al, 2010). Primary antibodies against pERK (#9101), pSTAT5 (#9359), ERK (#4695), Actin (#4970), Caspase 3 (#14220), wildtype CALR (#12238) were purchased from Cell Signalling. Primary antibodies against pSTATI (#612233), pSTAT3 (#612357), STATI (#610186), STAT3 (#610190), STAT5 (#610192) and Anti-phosphotyrosine 4G10 (#610012) were purchased from BD Biosciences. Mutant CALR monoclonal antibody CAL2 was purchased from Dianova (Hamburg, Germany). Immunopreciptation of TpoR was performed in standard NP40 lysis buffer with additional 50 mM iodoacetamide to avoid any de novo disulfide bond formation post lysis. To reduce IgG background during immunoprecipitation anti-FLAG conjugated to magnetic beads (Sigma, #M8823) were used. For this same reason, anti-FLAG-HRP conjugated antibodies (Sigma, #A8592) were used in western blotting."}, "[4]": {"tested_on": "TF-1 TpoR CALR^del61 cells", "test": "Flow cytometry of 4D7 binding to the cell surface, mutant CALR cells", "format": "cell-based, human", "settings": "PE-conjugated 4D7; vs unstained or isotype-PE control", "procedure": "TF-1 cells expressing TpoR and mutant CALR were incubated for 30 minutes 4D7 conjugated to phycoerthryin (PE) (Abcam, #AB102918) or IgG2a PE isotype control (ThermoFisher #12-4321-42) at the concentrations specified after pre-incubation with mouse serum. Cells were washed 1 × before analysis on a CytoFLEX (Beckman Coulter)."}}, "data": [{"molecule": "B1", "values": [{"measurement": "inhibition of CD41+CD61+ megakaryocyte progenitors", "setting": "[1]", "value": "No significant inhibition"}, {"measurement": "mean decrease of CD41+ cells across CALR mutant samples", "setting": "[2]; 20 μg/mL, day 12, normalised to IgG", "value": 55, "unit": "%"}, {"measurement": "inhibition of CD41+ megakaryocytes compared to IgG control", "setting": "[2]; additional samples in 2 independent patients (Graz), including type 2 CALR (5 base pair insertion)", "value": "evidence of inhibition"}, {"measurement": "inhibition of TPO-independent growth of CD41+CD61+ megakaryocyte progenitors", "setting": "[2]; four out of 5 mutant CALR MF patient samples, 20 μg/mL, 12 days, vs IgG", "value": "at least 50%"}, {"measurement": "inhibition of CD41+CD61+ megakaryocyte progenitors", "setting": "[2]; patient sample with a 34 base pair deletion", "value": "weaker inhibition"}, {"measurement": "reactivity to the peptide and CALR mutant protein among hybridoma clones", "setting": "[3]; 3 hybridoma screens, FIG. 6A", "value": "strongest reactivity"}, {"measurement": "detection of mutant CALR protein by Western blot", "setting": "[3]; TF-1 TpoR CALR^del61 vs CALR wild type TF-1 cells", "value": "able to detect mutant CALR protein in CALR^del61 cells but not in CALR wild type TF-1 cells"}, {"measurement": "binding to the cell surface", "setting": "[4]", "value": "Specific binding"}]}]}
